Paper PMC3192115, “Analysis of RNA Binding by the Dengue Virus NS5 RNA Capping Enzyme”
Several values for one entry are separate records, joined by “and”; a condition that tells them apart may be missing. Equal values may be shown once.

Experiments:
[1] = molecular target: T1, NS5 capping enzyme WT (West Nile) (West Nile virus) (UniProt Q9Q6P4); experiment: fluorescence polarization; details: 5' diphosphate
T1 sequence: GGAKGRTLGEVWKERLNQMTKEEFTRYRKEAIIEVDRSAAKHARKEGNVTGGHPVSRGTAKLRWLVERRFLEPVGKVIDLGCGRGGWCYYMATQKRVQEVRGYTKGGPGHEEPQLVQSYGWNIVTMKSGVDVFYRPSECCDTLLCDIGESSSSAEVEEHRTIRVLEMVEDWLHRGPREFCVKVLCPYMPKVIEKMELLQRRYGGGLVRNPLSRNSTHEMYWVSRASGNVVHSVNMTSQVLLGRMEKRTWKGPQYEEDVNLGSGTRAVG

[2] = molecular target: NS5 capping enzyme WT (yellow fever) (Yellow fever virus, UniProt P03314 2507-2774); experiment: fluorescence polarization; details: protein: recombinant; label: 3' FAM
[3] = molecular target: T2, NS5 N-terminal capping enzyme WT (dengue 2) (Dengue virus type 2, UniProt P29990 2492-2758); experiment: fluorescence polarization; details: protein: recombinant; tags: His; label: 3' FAM
[4] = molecular target: T2, NS5 N-terminal capping enzyme WT …; experiment: fluorescence polarization; Table 1 gives 3.7 uM, SD 217 nM; details: protein: recombinant; tags: His; label: 3' FAM
[5] = molecular target: T2, NS5 N-terminal capping enzyme WT …; experiment: fluorescence polarization; mock control for GTP experiment; details: protein: recombinant; tags: His; label: 3' FAM

T2 sequence (P29990 2492-2758): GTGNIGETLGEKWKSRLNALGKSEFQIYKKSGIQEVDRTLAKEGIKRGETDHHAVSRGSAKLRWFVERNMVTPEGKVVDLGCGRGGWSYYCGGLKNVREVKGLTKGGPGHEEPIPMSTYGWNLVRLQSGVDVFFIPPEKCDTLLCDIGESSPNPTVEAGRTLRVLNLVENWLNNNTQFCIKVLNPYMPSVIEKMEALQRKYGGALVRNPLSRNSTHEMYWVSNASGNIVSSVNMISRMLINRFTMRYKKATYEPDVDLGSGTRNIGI
Chain of NS5 capping enzyme WT (yellow fever) (P03314 2507-2774): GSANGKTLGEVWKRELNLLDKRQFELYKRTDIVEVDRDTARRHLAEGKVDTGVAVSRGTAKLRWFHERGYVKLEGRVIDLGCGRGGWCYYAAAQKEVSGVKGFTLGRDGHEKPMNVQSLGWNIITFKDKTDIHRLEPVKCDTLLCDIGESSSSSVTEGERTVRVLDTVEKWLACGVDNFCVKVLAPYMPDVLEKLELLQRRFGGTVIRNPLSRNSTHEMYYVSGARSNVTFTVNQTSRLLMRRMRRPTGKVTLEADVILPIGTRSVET

How did the Kd [1] turn out when AGUAA [ppAGUAA-FAM] was run?
Its Kd is 136 nM.

B1: ppAGUAA-FAM (ssRNA)
RNA: AGUAA
modifications: 5' diphosphate
What does the source list for B1?
Kd [2]: 420 ± 20 nM; Kd [3]: 187 nM and ~200 nM

B2: pAGUAA-FAM (ssRNA)
RNA: AGUAA
modifications: 5' monophosphate
For B2, which Kd [3] is on record?
The Kd was 967 ± 88 nM.

B3: AGUAA-FAM (ssRNA)
RNA: AGUAA
modifications: no 5' phosphate
With B3 as the molecule, how does the Kd [4] read?
The Kd was 3800 ± 200 nM.

What about the Kd [5] of the same molecule?
The Kd was 3500 nM.
